PMC7710356, “RNF41 regulates the damage recognition receptor Clec9A and antigen cross-presentation in mouse dendritic cells” (eLife, 2020)

How the values were obtained:
[1] = biological target: T1, FLAG-tagged recombinant human CLEC9A ecto-domains (hCLEC9A-ecto) (human, UniProt Q6UXN8 57-241); experiment: ELISA; plates coated with GST-RNF41-C, GST-RNF41-RBC or GST (10 μg/ml); FLAG-tagged Clec ectodomains 10 to 0.04 μg/ml in solution; detected with anti-FLAG HRP; settings: both partners purified
T1 construct: human CLEC9A, full extracellular region (ecto) including the CTLD and stalk; also called human wild-type CLEC9A

[2] = biological target: T2, mutant CLEC9A ectodomain (hCLEC9A W131A, W227A) (human, UniProt Q6UXN8 57-241, W131A | W227A); experiment: as above; settings: both partners purified
T2 construct: human CLEC9A extracellular region (ecto) with W131A and W227A in the CTLD; Same construct as m2 with the two tryptophan mutations; also called hCLEC9A-ecto (W->A); hCLEC9A-ecto W->A
T2 sequence (Q6UXN8 57-241 W131A/W227A): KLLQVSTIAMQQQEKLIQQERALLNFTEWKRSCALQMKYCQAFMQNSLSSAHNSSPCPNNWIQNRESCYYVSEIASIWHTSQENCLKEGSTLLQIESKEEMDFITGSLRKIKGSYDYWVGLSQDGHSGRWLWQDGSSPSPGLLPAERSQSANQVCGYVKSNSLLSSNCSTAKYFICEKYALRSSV

T1 sequence (Q6UXN8 57-241): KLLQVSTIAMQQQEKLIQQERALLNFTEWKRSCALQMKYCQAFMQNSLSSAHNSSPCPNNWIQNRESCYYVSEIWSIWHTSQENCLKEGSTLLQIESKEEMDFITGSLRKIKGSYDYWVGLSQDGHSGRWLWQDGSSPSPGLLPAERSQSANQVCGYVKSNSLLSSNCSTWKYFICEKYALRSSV

binding result [1]: binds
binding result [2]: binds
B1: GST-tagged RNF41 C-terminal domain (RNF41-C) (domain or fragment, human, UniProt Q9H4P4 169-317, looked up)
chain: DIQLLKAYMRAIRSVNPNLQNLEETIEYNEILEWVNSLQPARVTRWGGMISTPDAVLQAVIKRSLVESGCPASIVNELIENAHERSWPQGLATLETRQMNRRYYENYVAKRIPGKQAVVVMACENQHMGDDMVQEPGLVMIFAHGVEEI
notes: RNF41 C-terminal domain; region 169-DIQL…VEEI-317; Cloned into a modified pGEX-2T vector; also called GST-RNF41-C; source: E. coli BL21 DE3, purified (Glutathione-Sepharose, SEC)
